The values that follow come from publication PMC4788496 (Chemistry & biology, 2015).

The series deals with the molecule itself. As to the kind of experiment: SEC. A general note: SEC sorts molecules by how far they enter the pores of the column.

B1: apoNC1 (heme-free DGCR8 construct NC1, a.a. 276-751) (domain or fragment, human, UniProt Q8WYQ5 276-751, looked up)
chain: DGETSVQPMMTKIKTVLKSRGRPPTEPLPDGWIMTFHNSGVPVYLHRESRVVTWSRPYFLGTGSIRKHDPPLSSIPCLHYKKMKDNEEREQSSDLTPSGDVSPVKPLSRSAELEFPLDEPDSMGADPGPPDEKDPLGAEAAPGALGQVKAKVEVCKDESVDLEEFRSYLEKRFDFEQVTVKKFRTWAERRQFNREMKRKQAESERPILPANQKLITLSVQDAPTKKEFVINPNGKSEVCILHEYMQRVLKVRPVYNFFECENPSEPFGASVTIDGVTYGSGTASSKKLAKNKAARATLEILIPDFVKQTSEEKPKDSEELEYFNHISIEDSRVYELTSKAGLLSPYQILHECLKRNHGMGDTSIKFEVVPGKNQKSEYVMACGKHTVRGWCKNKRVGKQLASQKILQLLHPHVKNWGSLLRMYGRESSKMVKQETSDKSVIELQQYAKKNKPNLHILSKLQEEMKRLAEEREETRK
On to B1, for which the binding result is reported as “binds”.
